The values below come from patent US20240150462A1 (UNIVERSITY HEALTH NETWORK, published 2024).

The chains are these.
B1: 5E6 (antibody, V domains shown)
VH: QVQLQQSAAELVKPGASVKISCKVSGQSFTDHTIHWMKQRPEQGLEWIGYIFPRDGFTEYNERFKGKATLTADKSSSTAYMHLNSLTSEDSAVYFCAGNWDALDYWGPGTSVTVSS
VL: DIVLTQSPATLSVTPGDSVSLSCRASQSISKYLHWYQQKSHESPRLLIKYVSQSISGIPSRFSGSGSGTDFTLSINSVETEDFGIYFCQQSNSWPLTFGAGTKLELKR
notes: Entries are printed with leader peptide and part of the mouse constant region; also called LILRB1 antibody 5E6
B2: 4H5 (antibody, V domains shown)
VH: QIQLQQSGPELVKPGASVKISCKASGYTFTDYYINWVKQRPGQGLEWIGWIYPGGDNTKYNEKFKDKATLTVDTSSSTTYMQLSSLTSEDSAVYFCARFEDKYSSNYWFAYWGQGTLVTVSA
VL: DILLTQSPAILSVSPGERVSFSCRASQYIGTSIHWYQQRTNGSPRLLIKYASESISGIPSRFSGSGSGTDFTLSINSVESEDVADYYCQQSNRWPFTFGSGTKLEIKR
notes: Entries are printed with leader peptide and part of the mouse constant region; also called LILRB1 antibody 4H5
B3: 6A11 (antibody, V domains shown)
VH: B2 VH with G55S, D56G, D66G, T79A, Y103H
VL: B2 VL with V83I, R93S
notes: Entries are printed with leader peptide and part of the mouse constant region; also called LILRB1 antibody 6A11
B4: 5B3 (antibody, V domains shown)
VH: QVQLKESGPGLVAPSQSLSITCTVSGFSLTSYGIDWVRQPPGKGLEWLGVIWGGGNTNYNSALMSRLTISKDNSKSQVFLKMNSLQTDDTAMYYCAKANWDSYAMDYWGQGTSVTVSS
VL: DIQMNQSPSSLSASLGDTITITCHASQNINFWLNWYQQKPGNIPKLLIYKASNLHTGVPSRFSGSGSGTGFTLTISSLQPEDIATYYCQQGQSYPLTFGGGTKVEIKR
notes: Entries are printed with leader peptide and part of the mouse constant region; also called LILRB1 antibody 5B3
B5: 4C2 (antibody, V domains shown)
VH: QVQLQQPGAALVKPGASVKLSCKASGYTFTSYWMHWVKQRPGQGLEWIGMIHPNSGSTNYNEKFRSEATLTVDKSSSTVYMQLSSLTSEDSAVYYCARSGDAYYDGLDYWGQGTSVTVSS
VL: B4 VL with S26R, F31V, N34S, P59S, L96W, V104L
notes: Entries are printed with leader peptide and part of the mouse constant region; also called LILRB1 antibody 4C2
B6: 4A10 (antibody, V domains shown)
VH: QVQLQQPGAELVKPGASVKLSCKASGYTFTNYWMYWVKQRPGQGLEWIGMIHPNSDSTNYNEKFKNKATLTVDRSSSTAYMQLSSLTSEDSAVYCCARGEDNYDYVMDYWGQGTSVTVSS
VL: DIVMTQAAPSVPVTPGESVSISCRSSKSLLHSYGNTHLYWFLQRPGQSPQLLIYRMSNLASGVPDRFSGSGSGTAFTLRISRVEAEDVGVYYCMQHLEYPLTFGAGTKLELKR
notes: Entries are printed with leader peptide and part of the mouse constant region; also called LILRB1 antibody 4A10
B7: 4A11 (antibody, V domains shown)
VH: QVQLKQSGAELVRPGTSVKLSCKASGYTFTDYYINWVKQRPGQGLEWIARIYPGSGNTFYNEKFQDKATLTAEKSSSTAYMQLSSLTSEDSAVYFCANTPSYGSSHWYFDVWGTGTTVTVSS
VL: DIVMTQSHKFMSTSVGDRVSITCKASQDVNTAVAWYQQKPGQSPKLLIYWASTRHTGVPDRFTGSGSGTDFTLTISNVQSEDLADYFCQQYSTYPRTFGGGTKLEIKR
notes: Entries are printed with leader peptide and part of the mouse constant region; also called LILRB1 antibody 4A11
B8: 6B7 (antibody, V domains shown)
VH: QIQLVQSGPELKKPGETVKISCKASGYTFTNYGLSWVKQAPGKGLKWMGWINTYSGVTTYADDFKGRFAFSLETSASTAYLQINNLKSEDTATYFCARRSYDYSHYYAMDYWGQGTSVTVSS
VL: ETTVTQSPASLSVATGEKVTIRCITSTDIDDDINWYQQKPGEPPKFLISEGNTLRPGVPSRFSSSGYGTDFVFTIENTLSEDVADYYCLQSNNMPYTFGGGTKLEIKR
notes: Entries are printed with leader peptide and part of the mouse constant region; also called LILRB1 antibody 6B7
B9: 3E12 (antibody, V domains shown)
VH: QVQLQQSGAELMKPGASVKLSCKATGYTFTGYWIEWVKQRPGHGLEWIGEILLGSGNTNYNENFKGKATLTADTSSNTAYMQLSSLTTEDSAIYYCASTHDGYWGQGTTLTVSS
VL: QFILTQSPAIMSASPGEKVTITCSASSSVSYMHWFQQKPGTSPKLWIYSTSNLASGVPARFSGSGSGTSYSLTISRMEAEDAATYYCQRRSSYPFTFGSGTKLEIKR
notes: Entries are printed with leader peptide and part of the mouse constant region; also called LILRB1 antibody 3E12
B10: 4D5 (antibody, V domains shown)
VH: QVQLQQPGAELVRPGSSVKLSCKASGYTFTSYWMDWVKQRPGQGLEWIGNIYPSDSATHYNQKFKDKATLTVDKSSSTAYMHLSSLTSEDSAVYYCARGLLQYFDVWGTGTSVTVSS
VL: DIQMTQSPASLSVSVGETVTITCRASENIYSNLAWYQQKQGKSPQLLVYGATNLADGVPSRFSGSGSGTQYSLKINSLQSEDFGSYYCQHFWGIPWTFGGGTKLEIKR
notes: Entries are printed with leader peptide and part of the mouse constant region; also called LILRB1 antibody 4D5
B11: 5E11 (antibody, V domains shown)
VH: QVQLKESGPGLVAPSQSLSITCTVSGFSLSSYGVNWVRQPPGKGLEWLGVIWGDGSTNYHSALISRLSISKDNSKSQVFLKLNSLQTDDTATYYCAKPNWDYYAMEYWGQGTSVTVSS
VL: DIQMTQTTSSLSASLGDRVTITCRASQDISNFLNWYQQKPDGPVKLLIYYTSRLHSGVPSRFSGSGSGTDYSLTISNLEQEDIATYFCQQGNTLPWTFGGGTKLEIKR
notes: Entries are printed with leader peptide and part of the mouse constant region; also called LILRB1 antibody 5E11
B12: 5H12 (antibody, V domains shown)
VH: B11 VH
VL: GIVMTQSQKFMSSTVGDRVSITCKASQNVGAAVIWYQQKPGQSPKLLIYSASNRYTGVLDRFTGSGSGTDFTLTISNMQSEDLADYFCQQYSSYPWTFGGGTKLEIKR
notes: Entries are printed with leader peptide and part of the mouse constant region; also called LILRB1 antibody 5H12
B13: 6A6 (antibody, V domains shown)
VH: QVQLQQSGPELVKPGASVKISCKASGYSFTSSYIHWVKQRPGQGLEWIGWIYPGSGNTKYNERFKGKATLTADTSSSTAYMHLSSLTSEDSAVYYCARNYGTSYGWYFDVWGTGTTVTVSS
VL: B12 VL with G1D, S13T, A31T, I34A, A51L, L59P, A84T, W96L, G100A, I106L
notes: Entries are printed with leader peptide and part of the mouse constant region; also called LILRB1 antibody 6A6
B14: 1B10 (antibody, V domains shown)
VH: QVQLQQPGAELVKPGASVKLSCKASGYTFTNYWVQWVKQRPGQGLEWIGMIHPNSGSTNSNEKFKNKATLTVDRSSSTAYMQLSRLTSEDSAVYYCARGDDGYLYYFDYWGQGTTLTVSS
VL: QIVLTQSPALMSASPGEKVTMTCSASSSVSHMYWYQQKPRSSPKPWIYLTSNLASGVPARFSGSGSGTSYSLTISNMEAEDAATYYCQQWSSYAFTFGSGTKLEIKR
notes: The entries called 'variable region' are printed with the leader peptide and part of the mouse constant region; also called LILRB1 antibody 1B10
B15: 1C8 (antibody, V domains shown)
VH: EVKLVESGGGLVQPGGSLKLSCAASGFTFSDYYMYWVRQTPEKRLEWVAYISNGGGNTYYPDTVKGRFTISRDNAKNTLYLQMSRLKSEDTAMYYCARQLEDWYFDVWGTGTTVTVSS
VL: DIVMTQSHKFMSTSVGDRVSITCKASQDVSTAVAWSQQKPGQSPKLLVYWASARHTGVPDRFTGSGSGADYTLTISSVQAEDLALYYCQQHFSTPLTFGAGTKLELKR
notes: Entries are printed with leader peptide and part of the mouse constant region; also called LILRB2 antibody 1C8
B16: 2G9 (antibody, V domains shown)
VH: B15 VH with Q99N, L100R, E101D
VL: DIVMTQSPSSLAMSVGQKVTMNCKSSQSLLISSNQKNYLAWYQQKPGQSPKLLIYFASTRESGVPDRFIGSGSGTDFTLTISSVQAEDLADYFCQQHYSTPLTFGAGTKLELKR
notes: Entries are printed with leader peptide and part of the mouse constant region; also called LILRB2 antibody 2G9
B17: 1A8 (antibody, V domains shown)
VH: EVQLVESGGDLVKPGESLKLSCAASGFSFSSYDMSWVRQTPDKRLEWVTTISSGGDYTYFPDILKGRFTISRDNAKHTLYLQLSSLKSEDTAMYYCARWDSNFPHWYFDVWGTGTTVTVSS
VL: DIVLTQSPASLAVSLGQRATISCRASESVDKSGISFLHWYQQKPRQPPKLLIYRASNLESGIPGRFSGSGSRTDFTLSINPVEPDDVATYYCQQSNKDPFTFGGGTKLEIKR
notes: Entries are printed with leader peptide and part of the mouse constant region; also called LILRB2 antibody 1A8
B18: 1G3 (antibody, V domains shown)
VH: EVQLVESGGDLVKPGGSLKLSCAASGFTFSSYDMSWVRQTPDKRLEWVATISSGGSYTFYPDSVKGRFTISRDNAKNTLSLQMSSLKSEDTAIYYCARWDSNYLRWFFDVWGTGTTVTVSS
VL: B17 VL with K31N, S32N, L37M, R45G, P47S, G64A, S78T, P84T, K97D
notes: Entries are printed with leader peptide and part of the mouse constant region; also called LILRB2 antibody 1G3
B19: 10F5 (antibody, V domains shown)
VH: B18 VH with G55A, F59Y, S80Y, N102K, F107Y
VL: B17 VL with K31N, S32N, L37M, R45G, P47S, Y53S, G64A, S78T, P84T, K97E
notes: Entries are printed with leader peptide and part of the mouse constant region; also called LILRB2 antibody 10F5
B20: 2F10 (antibody, V domains shown)
VH: EVQLQQSGPELVKPGASVKISCKASGYTFTDDYMNWVKQSHGKSLEWIGDINPTNGDTNYNQKFKGKATLTVDKSSSTAYMELRGLTSEDSAVYYCARGSSPFTYWGQGTLVTVSA
VL: DIQMTQTTSSLSASLGDRVTISCSASQGISNYLNWYQQKPDGTVKLLIYYTSSLYSGVPSRFSGSGSGTDYSLTISNLEPEDIATYYCQQYSKLPWTFGGGTKLEIKR
notes: Entries are printed with leader peptide and part of the mouse constant region; also called LILRB2 antibody 2F10

Positions count from the first letter of the chain named. Bounds are passed on as bounds.

The target of one assay is T1, Recombinant human Fc-tagged extracellular domain of LILRB1 (human, UniProt Q8NHL6 24-461).
T1 construct: extracellular domain; Bought from R&D Systems; also called LILRB1-Fc; not shown: Fc tag
T1 sequence (Q8NHL6 24-461): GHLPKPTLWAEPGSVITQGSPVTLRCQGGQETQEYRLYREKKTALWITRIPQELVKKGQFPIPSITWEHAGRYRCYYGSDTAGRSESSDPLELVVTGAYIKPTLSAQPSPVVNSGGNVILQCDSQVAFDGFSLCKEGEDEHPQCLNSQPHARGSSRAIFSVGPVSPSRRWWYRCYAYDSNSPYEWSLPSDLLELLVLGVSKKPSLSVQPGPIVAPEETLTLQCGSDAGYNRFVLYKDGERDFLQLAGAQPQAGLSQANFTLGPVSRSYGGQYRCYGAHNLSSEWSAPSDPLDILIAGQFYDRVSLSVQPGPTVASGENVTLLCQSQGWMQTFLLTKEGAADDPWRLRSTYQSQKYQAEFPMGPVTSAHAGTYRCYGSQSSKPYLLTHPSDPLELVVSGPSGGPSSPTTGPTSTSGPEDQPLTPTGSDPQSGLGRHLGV
The assay is described as follows: SPR, Biacore X100; LILRB1-Fc amine-coupled to CM5 chip, antibody injected at 3.7-300 nM. The method, then: (§1) Dissociation constants (Kd) for mouse anti-human LILRB1 and LIRB2 antibodies were determined using a Biacore X100 surface plasmon resonance instrument (Cytivia). Recombinant human Fc-tagged extracellular domains of LILRB1 or LILRB2 (LILRB1-Fc or LILRB2-Fc; R&D Systems) were immobilized on a Biacore CM5 biosensor chip by amine coupling at a density of 40-50 relative units (RU). Purified mouse monoclonal antibodies were injected over the biosensor in a concentration series of 3.7, 11, 33, 100, and 300 nM in HBS-EP buffer (10 mM HEPS pH 7.4, […], 3 mM EDTA, 0.005% v/v Surfactant P20) at a flow rate of 50 μL/min. Regeneration of the chip was achieved by a 30 s injection of 10 mM glycine-HCl, pH 1.7. Affinity parameters were determined by fitting response data using the accompanying Biacore X100 analysis software.
A general note: In SPR one partner is held on a chip, and binding of the other changes the refractive index at the surface.
In the case of B1, the “-log(Kd)” value worked out at 8.2.
With B2, the “-log(Kd)” value came out at 12.6.
As to B3, the “-log(Kd)” value worked out at 12.4.
Still for that read-out and setting: then B4, with 8.76.
For the molecule B5, the “-log(Kd)” value amounted to 12.7.
Same read-out and setting: then B6, with 7.89; and B7, with 7.76.
The same measure, in the same setting: under B8 stands 6.58; under B9, 11.6; under B10, 7.89.
The same measure, in the same setting: then B11, with under 3; and B12, with 8.26.
Consider B13, for which the “-log(Kd)” value was determined as 7.98.
With B14, the “-log(Kd)” value was found to be 8.13.

For a further assay, the target named is T2, Recombinant human Fc-tagged extracellular domain of LILRB2 (human, UniProt Q8N423 22-460).
T2 construct: extracellular domain; Bought from R&D Systems; also called LILRB2-Fc; not shown: Fc tag
T2 sequence (Q8N423 22-460): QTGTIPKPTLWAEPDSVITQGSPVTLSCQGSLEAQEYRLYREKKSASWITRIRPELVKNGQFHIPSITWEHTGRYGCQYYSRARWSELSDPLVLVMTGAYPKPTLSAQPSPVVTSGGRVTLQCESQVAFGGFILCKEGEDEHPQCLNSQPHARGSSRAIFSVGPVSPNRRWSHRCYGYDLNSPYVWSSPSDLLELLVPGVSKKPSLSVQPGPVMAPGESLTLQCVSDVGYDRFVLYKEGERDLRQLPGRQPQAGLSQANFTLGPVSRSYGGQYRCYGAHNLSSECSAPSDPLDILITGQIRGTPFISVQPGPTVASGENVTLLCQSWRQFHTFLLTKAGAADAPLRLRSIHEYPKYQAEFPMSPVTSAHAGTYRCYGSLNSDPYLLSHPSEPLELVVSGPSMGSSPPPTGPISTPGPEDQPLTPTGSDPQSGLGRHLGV
The assay is described as follows: SPR, Biacore X100; LILRB2-Fc amine-coupled to CM5 chip, antibody injected at 3.7-300 nM. On the procedure: as §1
In the case of B15, the “-log(Kd)” value was 7.64.
Same read-out and setting: under B16 stands 8.33; under B17, 7.79.
As to B18, the “-log(Kd)” value worked out at 8.05.
The same measure, in the same setting: under B19 stands 7.95; under B20, 8.4.
